This is an account of results in the supplement of paper PMC11246515.

The nature of the data set: total protein half-life in vivo (active degradation + dilution); higher = more stable protein.
Where [1] appears, read: E. coli NCM3722 delta-clpP delta-lon delta-hslV, growth: N-lim chemostat, doubling time 6 h.
Setting [2] is: E. coli NCM3722 delta-clpP, growth: N-lim chemostat, doubling time 6 h.
The mark [3] stands for this setting: E. coli NCM3722 delta-lon, growth: N-lim chemostat, doubling time 6 h.
Where [4] appears, read: E. coli NCM3722 delta-smpB, growth: N-lim chemostat, doubling time 6 h.
[5] abbreviates: wild type E. coli NCM3722, growth: C-lim chemostat, doubling time 3 h.
Where [6] appears, read: wild type E. coli NCM3722, growth: C-lim chemostat, doubling time 6 h.
Setting [7] is: wild type E. coli NCM3722, growth: N-lim chemostat, doubling time 6 h.
Where [8] appears, read: wild type E. coli NCM3722, growth: N-lim chemostat, doubling time 12 h.
Setting [9] is: wild type E. coli NCM3722, growth: P-lim chemostat, doubling time 12 h.
[10] abbreviates: E. coli NCM3722 delta-hslV, growth: N-lim chemostat, doubling time 6 h.
Setting [11] is: wild type E. coli NCM3722, growth: C-lim chemostat, doubling time 12 h.
Where [12] appears, read: wild type E. coli NCM3722, growth: P-lim chemostat, doubling time 6 h.

± gives the standard deviation of the averaged measurements.

For the sequence “MIKVLIVDDEPLARENLRVFLQEQSDIEIVGECSNAVEGIGAVHKLRPDVLFLDIQMPRISGLEMVGMLDPEHRPYIVFLTAFDEYAIKAFEEHAFDYLLKPIDEARLEKTLARLRQERSKQDVSLLPENQQALKFIPCTGHSRIYLLQMKDVAFVSSRMSGVYVTSHEGKEGFTELTLRTLESRTPLLRCHRQYLVNLAHLQEIRLEDNGQAELILRNGLTVPVSRRYLKSLKEAIGL [P0AFT5]”, the “total protein half-life in vivo” value by setting is: under setting [1], 5.88 h; under setting [2], 4.54 ± 0.31 h; under setting [3], 5.56 h; under setting [4], 3.83 h; under setting [5], 3.04 ± 0.45 h; under setting [6], 5.55 ± 0.23 h. In addition, the “total protein half-life in vivo” value reads like this: under setting [7], 5.02 ± 0.13 h; under setting [8], 7.03 ± 0.46 h; under setting [9], 10.1 ± 0.16 h.
Consider “MKLDEIARLAGVSRTTASYVINGKAKQYRVSDKTVEKVMAVVREHNYHPNAVAAGLRAGRTRSIGLVIPDLENTSYTRIANYLERQARQRGYQLLIACSEDQPDNEMRCIEHLLQRQVDAIIVSTSLPPEHPFYQRWANDPFPIVALDRALDREHFTSVVGADQDDAEMLAEELRKFPAETVLYLGALPELSVSFLREQGFRTAWKDDPREVHFLYANSYEREAAAQLFEKWLETHPMPQALFTTSFALLQGVMDVTLRRDGKLPSDLAIATFGDNELLDFLQCPVLAVAQRHRDVAERVLEIVLASLDEPRKPKPGLTRIKRNLYRRGVLSRS [P0ACP1]”, for which the “total protein half-life in vivo” value runs as follows: under setting [1], 6.0472 ± 0.0054 h; under setting [2], 5.37 ± 0.29 h; under setting [10], 5.38 ± 0.37 h; under setting [3], 5.87 ± 0.21 h; under setting [4], 5.16 ± 0.56 h; under setting [5], 3.17 ± 0.32 h. For the same sequence, the “total protein half-life in vivo” value runs as follows: under setting [6], 5.63 ± 0.057 h; under setting [11], 9.99 ± 0.83 h; under setting [7], 5.65 ± 0.2 h; under setting [8], 10.7 ± 0.77 h; under setting [12], 5.6 ± 0.084 h; under setting [9], 10.65 ± 0.013 h.
For “MSLLAQLDQKIAANGGLIVSCQPVPDSPLDKPEIVAAMALAAEQAGAVAIRIEGVANLQATRAVVSVPIIGIVKRDLEDSPVRITAYIEDVDALAQAGADIIAIDGTDRPRPVPVETLLARIHHHGLLAMTDCSTPEDGLACQKLGAEIIGTTLSGYTTPETPEEPDLALVKTLSDAGCRVIAEGRYNTPAQAADAMRHGAWAVTVGSAITRLEHICQWYNTAMKKAVL [P0A761]”, the “total protein half-life in vivo” value under setting [2] amounted to 5.64 h; the “total protein half-life in vivo” value under setting [10] came out at 3.95 h; the “total protein half-life in vivo” value under setting [3] is 4.21 ± 0.027 h; the “total protein half-life in vivo” value under setting [4] amounted to 4.27 h; the “total protein half-life in vivo” value under setting [5] turned out to be 2.9 ± 0.27 h; the “total protein half-life in vivo” value under setting [6] is 5.06 ± 0.56 h. Besides, the “total protein half-life in vivo” value under setting [11] is 10.3 ± 1.4 h; the “total protein half-life in vivo” value under setting [7] amounted to 4.14 ± 0.36 h; the “total protein half-life in vivo” value under setting [8] is 7.56 h; the “total protein half-life in vivo” value under setting [12] is 5.84 ± 1 h; the “total protein half-life in vivo” value under setting [9] turned out to be 9.47 ± 0.41 h.
As for “MNHAPHLYFAWQQLVEKSQLMLRLATEEQWDELIASEMAYVNAVQEIAHLTEEVDPSTTMQEQLRPMLRLILDNESKVKQLLQIRMDELAKLVGQSSVQKSVLSAYGDQGGFVLAPQDNLF [P0ABY2]”, the “total protein half-life in vivo” value under setting [5] was 0.191 h.
For “MMNSTNKLSVIIPLYNAGDDFRTCMESLITQTWTALEIIIINDGSTDNSVEIAKYYAENYPHVRLLHQANAGASVARNRGIEVATGKYVAFVDADDEVYPTMYETLMTMALEDDLDVAQCNADWCFRETGETWQSIPTDRLRSTGVLTGPDWLRMGLSSRRWTHVVWMGVYRRDVIVKNNIKFIAGLHHQDIVWTTEFMFNALRARYTEQSLYKYYLHNTSVSRLHRQGNKNLNYQRHYIKITRLLEKLNRNYADKIMIYPEFHQQITYEALRVCHAVRKEPDILTRQRMIAEIFTSGMYKRLITNVRSVKVGYQALLWSFRLWQWRDKTRSHHRITRSAFNLR”, the “total protein half-life in vivo” value runs as follows: under setting [1], 5.55 ± 0.4 h; under setting [2], 0.858 h; under setting [4], 0.809 ± 0.17 h; under setting [12], 0.32 ± 0.2 h; under setting [9], 0.789 ± 0.74 h.
Consider “MNQNLLVTKRDGSTERINLDKIHRVLDWAAEGLHNVSISQVELRSHIQFYDGIKTSDIHETIIKAAADLISRDAPDYQYLAARLAIFHLRKKAYGQFEPPALYDHVVKMVEMGKYDNHLLEDYTEEEFKQMDTFIDHDRDMTFSYAAVKQLEGKYLVQNRVTGEIYESAQFLYILVAACLFSNYPRETRLQYVKRFYDAVSTFKISLPTPIMSGVRTPTRQFSSCVLIECGDSLDSINATSSAIVKYVSQRAGIGINAGRIRALGSPIRGGEAFHTGCIPFYKHFQTAVKSCSQGGVRGGAATLFYPMWHLEVESLLVLKNNRGVEGNRVRHMDYGVQINKLMYTRLLKGEDITLFSPSDVPGLYDAFFADQEEFERLYTKYEKDDSIRKQRVKAVELFSLMMQERASTGRIYIQNVDHCNTHSPFDPAIAPVRQSNLCLEIALPTKPLNDVNDENGEIALCTLSAFNLGAINNLDELEELAILAVRALDALLDYQDYPIPAAKRGAMGRRTLGIGVINFAYYLAKHGKRYSDGSANNLTHKTFEAIQYYLLKASNELAKEQGACPWFNETTYAKGILPIDTYKKDLDTIANEPLHYDWEALRESIKTHGLRNSTLSALMPSETSSQISNATNGIEPPRGYVSIKASKDGILRQVVPDYEHLHDAYELLWEMPGNDGYLQLVGIMQKFIDQSISANTNYDPSRFPSGKVPMQQLLKDLLTAYKFGVKTLYYQNTRDGAEDAQDDLVPSIQDDGCESGACKI”, for which the “total protein half-life in vivo” value reads like this: under setting [1], 4.05 ± 0.63 h; under setting [2], 3.93 ± 0.074 h; under setting [10], 4.03 ± 0.099 h; under setting [3], 4.24 ± 0.14 h; under setting [4], 3.67 ± 0.52 h; under setting [5], 3.07 ± 0.15 h. Besides, the “total protein half-life in vivo” value under setting [6] is 4.91 ± 0.43 h; the “total protein half-life in vivo” value under setting [11] was determined as 9.24 ± 1.7 h; the “total protein half-life in vivo” value under setting [7] is 3.85 ± 0.23 h; the “total protein half-life in vivo” value under setting [8] is 5.89 ± 0.22 h; the “total protein half-life in vivo” value under setting [12] came to 5.93 ± 0.08 h; the “total protein half-life in vivo” value under setting [9] stood at 11.1 ± 0.48 h.
